Data: patent publication US20040220384A1 (Takeda / Millennium, published 2004)
Non-standard residues stand in square brackets, D forms with d. No end group written: not given here. Trp(6-Br) = N[C@@H](Cc1c[nH]c2cc(Br)ccc12)C(=O)O; dTrp(6-Br) = N[C@H](Cc1c[nH]c2cc(Br)ccc12)C(=O)O

T1: human GPR7 (human, UniProt P48145 1-328)
T1 sequence: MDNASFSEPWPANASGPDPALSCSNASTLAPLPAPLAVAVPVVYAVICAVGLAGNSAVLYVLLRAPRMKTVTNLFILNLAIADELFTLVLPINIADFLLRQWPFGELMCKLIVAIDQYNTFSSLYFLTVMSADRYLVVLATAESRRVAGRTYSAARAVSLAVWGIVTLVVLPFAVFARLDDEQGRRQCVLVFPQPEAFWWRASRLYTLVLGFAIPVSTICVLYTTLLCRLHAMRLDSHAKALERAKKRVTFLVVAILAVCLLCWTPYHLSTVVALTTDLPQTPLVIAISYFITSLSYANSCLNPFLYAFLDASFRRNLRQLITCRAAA

T2: bovine GPR7 (bovine, UniProt Q8MJV3 1-331)
T2 sequence: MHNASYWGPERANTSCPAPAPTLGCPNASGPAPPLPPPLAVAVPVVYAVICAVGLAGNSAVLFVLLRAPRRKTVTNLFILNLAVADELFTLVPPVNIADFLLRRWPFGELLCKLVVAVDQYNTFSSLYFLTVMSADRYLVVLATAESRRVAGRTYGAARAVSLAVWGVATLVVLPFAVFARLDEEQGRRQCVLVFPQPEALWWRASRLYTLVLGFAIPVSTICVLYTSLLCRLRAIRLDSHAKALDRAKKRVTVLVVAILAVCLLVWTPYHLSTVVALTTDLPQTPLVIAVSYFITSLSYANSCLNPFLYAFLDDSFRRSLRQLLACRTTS

T3: bovine GPR8 (bovine, UniProt Q8MJV2 1-336)
T3 sequence: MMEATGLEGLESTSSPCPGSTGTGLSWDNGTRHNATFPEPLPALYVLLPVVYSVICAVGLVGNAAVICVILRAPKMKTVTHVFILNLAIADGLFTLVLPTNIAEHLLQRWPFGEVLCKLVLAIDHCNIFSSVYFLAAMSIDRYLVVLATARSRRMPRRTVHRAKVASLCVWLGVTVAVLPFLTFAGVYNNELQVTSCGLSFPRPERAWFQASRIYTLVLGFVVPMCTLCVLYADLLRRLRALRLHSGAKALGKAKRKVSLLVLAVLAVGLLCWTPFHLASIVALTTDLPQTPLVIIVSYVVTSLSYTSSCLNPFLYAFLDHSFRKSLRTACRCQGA

T4: rat GPR7 (rat TGR26) (rat, UniProt Q56UD9 1-329)
T4 sequence: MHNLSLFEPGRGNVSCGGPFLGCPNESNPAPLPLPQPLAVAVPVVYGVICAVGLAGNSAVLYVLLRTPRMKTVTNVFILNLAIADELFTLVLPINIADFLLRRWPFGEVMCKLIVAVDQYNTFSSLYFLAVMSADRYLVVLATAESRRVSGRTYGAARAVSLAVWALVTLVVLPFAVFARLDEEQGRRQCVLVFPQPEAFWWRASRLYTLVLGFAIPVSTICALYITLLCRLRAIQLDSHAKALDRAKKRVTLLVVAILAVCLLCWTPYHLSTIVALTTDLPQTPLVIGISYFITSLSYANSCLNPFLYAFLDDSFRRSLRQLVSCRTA


How the values were obtained:
[1] = target: T1, human GPR7; assay: cell-based or functional assay
[2] = target: human GPR8 (human, UniProt P48146 1-333); assay: cell-based or functional assay
[3] = target: T2, bovine GPR7; assay: cell-based or functional assay
[4] = target: T3, bovine GPR8; assay: cell-based or functional assay
[5] = target: T4, rat GPR7 (rat TGR26); assay: cell-based or functional assay
[6] = target: T1, human GPR7; assay: binding inhibition of iodine-labeled hGPR7L-23 on human GPR7-expressed CHO cell membrane fraction
Method: The peptides shown in TABLE 3 are those obtained by diluting the stock solution of […] or 10⁻³ M with the assay buffer in 10⁻⁵ M, 10⁻⁶ M, 10⁻⁷ M, 10⁻⁸ M, 10⁻⁹ M, 10⁻¹⁰ M and 10⁻¹¹ M. As NBS, hGPR7L-23 was prepared in a final concentration of 10⁻⁵ M. The sample solution and NSB prepared were dispensed on a polypropylene-made 96-well plate, the assay buffer was dispensed thereto to make the total volume 50 μl, and 25 μl of the iodine-labeled product dilution was added thereto. After agitation, 25 μl of the solution of human GPR7-expressed CHO cell membrane fraction were dispensed thereto and agitated, followed by incubation at room temperature for 1.5 hour. Using a cell harvester for the 96-well plate, the culture medium was adsorbed onto a filter unit, which had previously been wetted with an assay buffer (50 mM Tris-HCl, pH7.5). After washing 5 times with the assay buffer, the filter unit was thoroughly dried. After 50 μl of a liquid scintillator was dispensed thereto, the radioactivity was counted on a Top Count (Packard) and the data was analyzed in triplet (FIG. 33).

Sequence of human GPR8 (P48146 whole entry): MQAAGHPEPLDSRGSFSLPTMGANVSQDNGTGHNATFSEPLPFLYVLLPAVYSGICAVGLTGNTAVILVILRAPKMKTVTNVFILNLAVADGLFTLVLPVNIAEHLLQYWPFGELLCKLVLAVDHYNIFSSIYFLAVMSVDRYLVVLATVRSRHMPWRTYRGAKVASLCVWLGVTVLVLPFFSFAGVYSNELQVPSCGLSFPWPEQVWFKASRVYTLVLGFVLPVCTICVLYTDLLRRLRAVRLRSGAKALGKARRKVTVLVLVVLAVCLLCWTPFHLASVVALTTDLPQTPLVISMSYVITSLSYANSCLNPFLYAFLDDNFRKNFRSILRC

Binder	IC50 of intracellular cAMP production suppression (cAMP production inhibition rate) [1] [nM]	IC50 of intracellular cAMP production suppression (cAMP production inhibition rate) [2] [nM]	IC50 of intracellular cAMP production suppression (cAMP production inhibition rate) [3] [nM]	IC50 of intracellular cAMP production suppression (cAMP production inhibition rate) [4] [nM]	IC50 of intracellular cAMP production suppression (cAMP production inhibition rate) [5] [nM]	IC50 [6] [nM]
[dTrp(6-Br)]YKPTAGQGYYSVGRAAGLLSGFHRSPYA [DTrp(6Br)1-bovine GPR7L(29)]	35	198	77	34	2.5	6.1
WYKPTAGQGYYSVGRAAGLLSGFHRSPYA (also called bovine GPR7 ligand B; non-brominated GPR7L) [Trp1-bovine GPR7L(29)]	0.43	8.1	1.2	5.4	0.25	0.31
[dTrp(6-Br)]YKPAAGHSSYSVGRAAGLLSGLRRSPYA [DTrp(6Br)1-human GPR7L(29)]	106	770	360	424	49	13
[Trp(6-Br)]YKPAAGHSSYSVGRAAGLLSGLRRSPYA [LTrp(6Br)1-human GPR7L(29)]	0.44	32	1.8	51	0.47	0.32
[Trp(6-Br)]YKPTAGQGYYSVGRAAGLLSGFHRSPYA [LTrp(6Br)1-bovine GPR7L(29)]	0.58	9.7	1.9	4	0.21	0.34

Continued, values first:

IC50 of intracellular cAMP production suppression (cAMP production inhibition rate) [1] [nM]	IC50 of intracellular cAMP production suppression (cAMP production inhibition rate) [2] [nM]	IC50 of intracellular cAMP production suppression (cAMP production inhibition rate) [3] [nM]	IC50 of intracellular cAMP production suppression (cAMP production inhibition rate) [4] [nM]	IC50 of intracellular cAMP production suppression (cAMP production inhibition rate) [5] [nM]	IC50 [6] [nM]	Binder
0.86	8.8	1.2	14	0.3	0.34	WYKPAAGSHHYSVGRAAGLLSSFHRFPST (also called rat GPR7 ligand B) [Trp1-rat GPR7L(29)]
0.58	–	–	–	–	–	WYKPAAGHSSYSVGRAAGLLSGL [Trp1-human GPR7L(23)]
0.31	2.8	0.51	3.5	0.18	0.3	WYKPAAGSHHYSVGRAAGLLSSFH (also called rat GPR7 ligand A) [Trp1-rat GPR7L(24)]
